These results are taken from patent US7553630.

The subject of data set [1] is peptide 1 (19 kDa) from plasmin digestion of CHO-derived human MI.
Data set [2] relates to peptide 3 (13.5 kDa) from plasmin digestion of CHO-derived human MI.
Data set [3] concerns the target type I collagenase in activated conditioned medium from TPA-treated rabbit synovial fibroblasts (rabbit) (UniProt P13943). Description: cell-based or functional assay.
The target of data set [4] is CHO cell-derived recombinant human metalloproteinase inhibitor (MI).
Data set [5] has as its target E. coli-derived recombinant human metalloproteinase inhibitor (MI).

Chain of peptide 3 (13.5 kDa) from plasmin digestion of CHO-derived human MI (chain, as listed by the source): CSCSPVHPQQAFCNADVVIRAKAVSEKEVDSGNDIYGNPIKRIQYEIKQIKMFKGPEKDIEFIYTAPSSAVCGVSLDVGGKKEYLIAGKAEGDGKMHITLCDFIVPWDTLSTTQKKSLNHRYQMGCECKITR

As to “gelatinase(s) in activated conditioned medium from TPA-treated rabbit synovial fibroblasts”, the “SDS-gelatin PAGE of a plasmin digest of MI” value in data set [1] and in data set [2] was “These peptides retained their anticollagenase activity as shown by the SDS-gelatin PAGE” throughout.

In turn, “bovine peak II-derived metalloproteinase inhibitor (from UniProt P20414 24-207)” came in with a Specific activity (units/mg), radiolabeled collagen film collagenase inhibition assay in data set [3] of 1780 units/mg.

B1: plasmin-treated rabbit fibroblast interstitial procollagenase (46-kDa intermediate) (protein)
chain: GNGLAVEKLKQMQEFFGLKVTGKPDAETLKMMKQPRCGVPDVAQFVLTPGNPRWEQTHLTYRIENYTPDLSRADVDNAIEKAFQLWSNVTPLTFTKVSKGQADIMISFVRGDHRDNSPFDGPEGQLAHAFQPGLGIGGDVHFDEDDRWTKDFRNYNLYRVAAHELGHSLGLSHSTDIGALMYPNYMFSGDVQLAQDDIDGIQAIYGPSQNPSQPVGPQTPKVCDSKLTFDAITTIRGEIMFFKDRFYMRANPYYSEVELNFISVFWPHLPNGLQAAYEVAHRDEILFFKGNKYWTVQGQNELPGYPKDIHSSFGFPRSVNHIDAAVSEEDTGKTYFFVANKYWRYDEYKRSMDAGYPKMIEYDFPGIGNKVDAVFKKDGFFYFFHGTRQYKFDPKTKRILTLQKANSWFNCRKN
On to B1, for which, in data set [4], the “conversion of the 46-kDa intermediate to the 42-kDa active enzyme at 37° C. (SDS-PAGE); 27 pmol MI, 16 pmol procollagenase” value is “the conversion of the 46-kDa intermediate to the 42-kDa active enzyme which should have occurred at 37 °C was completely blocked by MI”.

B2: human plasmin (protein)
chain: KVYLSECKTGNGKNYRGTMSKTKNGITCQKWSSTSPHRPRFSPATHPSEGLEENYCRNPDNDPQGPWCYTTDPEKRYDYCDILECEEECMHCSGENYDGKISKTMSGLECQAWDSQSPHAHGYIPSKFPNKNLKKNYCRNPDRELRPWCFTTDPNKRWELCDIPRCTTPPPSSGPTYQCLKGTGENYRGNVAVTVSGHTCQHWSAQTPHTHNRTPENFPCKNLDENYCRNPDGKRAPWCHTTNSQVRWEYCKIPSCDSSPVSTEQLAPTAPPELTPVVQDCYHGDGQSYRGTSSTTTTGKKCQSWSSMTPHRHQKTPENYPNAGLTMNYCRNPDADKGPWCFTTDPSVRWEYCNLKKCSGTEASVVAPPPVVLLPDVETPSEEDCMFGNGKGYRGKRATTVTGTPCQDWAAQEPHRHSIFTPETNPRAGLEKNYCRNPDGDVGGPWCYTTNPRKLYDYCDVPQCAAPSFDCGKPQVEPKKCPGRVVGGCVAHPHSWPWQVSLRTRFGMHFCGGTLISPEWVLTAAHCLEKSPRPSSYKVILGAHQEVNLEPHVQEIEVSRLFLEPTRKDIALLKLSSPAVITDKVIPACLPSPNYVVADRTECFITGWGETQGTFGAGLLKEAQLPVIENKVCNRYEFLNGRVQSTELCAGHLAGGTDSCQGDSGGPLVCFEKDKYILQGVTSWGLGCARPNKPGVYVRVSRFVTWIEGVMRNN
For the molecule B2, the “plasmin conversion of the 52-kDa proenzyme to the 46-kDa intermediate (SDS-PAGE)” value in data set [4] is “The addition of MI had no effect on the conversion of the 52-kDa proenzyme to the 46-kDa intermediate (lane 4)”.

B3: type I collagenase in activated conditioned medium from TPA-treated rabbit synovial fibroblasts (protein)
chain: FVLTPGNPRWEQTHLTYRIENYTPDLSRADVDNAIEKAFQLWSNVTPLTFTKVSKGQADIMISFVRGDHRDNSPFDGPEGQLAHAFQPGLGIGGDVHFDEDDRWTKDFRNYNLYRVAAHELGHSLGLSHSTDIGALMYPNYMFSGDVQLAQDDIDGIQAIYGPSQNPSQPVGPQTPKVCDSKLTFDAITTIRGEIMFFKDRFYMRANPYYSEVELNFISVFWPHLPNGLQAAYEVAHRDEILFFKGNKYWTVQGQNELPGYPKDIHSSFGFPRSVNHIDAAVSEEDTGKTYFFVANKYWRYDEYKRSMDAGYPKMIEYDFPGIGNKVDAVFKKDGFFYFFHGTRQYKFDPKTKRILTLQKANSWFNCRKN
In the case of B3, the “SDS-PAGE and autoradiography of specific collagen cleavage; MI at about 2 µg/ml” value in data set [5] is reported as “also inhibited the specific collagen cleavage characteristic of mammalian collagenases”.

B4: rabbit fibroblast interstitial collagenase (42-kDa activated enzyme, APMA-activated) (protein)
chain: B3 chain
For the molecule B4, in data set [4], the “SDS-PAGE and autoradiography of 14C type I collagen cleavage products; 4.6 pmol MI, 2.1 pmol collagenase” value was “The initial cleavage of the collagen as well as its further degradation were completely blocked by recombinant human MI”.
